Article PMC3515540, “Identification of Regions Involved in Substrate Binding and Dimer Stabilization within the Central Domains of Yeast Hsp40 Sis1” (PLoS ONE, 2012)

T1: full-length Ydj1 (yeast, UniProt P25491 1-409)
T1 construct: Ydj1, yeast cytosolic Type I DnaJ/Hsp40, full length; also called wild-type Ydj1; source: E. coli BL21(DE3), purified by two chromatography steps
T1 sequence (looked up): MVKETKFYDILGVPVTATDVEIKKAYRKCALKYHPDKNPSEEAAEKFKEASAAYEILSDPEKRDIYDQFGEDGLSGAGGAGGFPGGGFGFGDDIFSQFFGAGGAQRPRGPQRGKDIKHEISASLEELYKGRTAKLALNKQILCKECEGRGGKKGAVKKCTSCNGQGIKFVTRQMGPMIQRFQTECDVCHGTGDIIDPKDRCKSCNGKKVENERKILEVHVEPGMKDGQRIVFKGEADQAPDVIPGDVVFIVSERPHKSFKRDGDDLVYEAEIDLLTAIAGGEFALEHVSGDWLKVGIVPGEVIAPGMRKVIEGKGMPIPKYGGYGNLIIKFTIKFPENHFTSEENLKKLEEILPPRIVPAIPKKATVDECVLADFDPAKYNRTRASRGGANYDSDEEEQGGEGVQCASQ

B1: wild-type Sis1 (natural protein, yeast, UniProt P25294 1-352, looked up)
chain: MVKETKLYDLLGVSPSANEQELKKGYRKAALKYHPDKPTGDTEKFKEISEAFEILNDPQKREIYDQYGLEAARSGGPSFGPGGPGGAGGAGGFPGGAGGFSGGHAFSNEDAFNIFSQFFGGSSPFGGADDSGFSFSSYPSGGGAGMGGMPGGMGGMHGGMGGMPGGFRSASSSPTYPEEETVQVNLPVSLEDLFVGKKKSFKIGRKGPHGASEKTQIDIQLKPGWKAGTKITYKNQGDYNPQTGRRKTLQFVIQEKSHPNFKRDGDDLIYTLPLSFKESLLGFSKTIQTIDGRTLPLSRVQPVQPSQTSTYPGQGMPTPKNPSQRGNLIVKYKVDYPISLNDAQKRAIDENF
notes: Sis1, yeast cytosolic Type II DnaJ/Hsp40, full length wild type (residues to 352 by the SYS formula); no tag is stated; also called native Sis1; full length wild-type Sis1; source: E. coli BL21(DE3), purified by two chromatography steps
B2: Sis1_Δ_(124–174) (natural protein, yeast, UniProt P25294 1-352, looked up)
chain: MVKETKLYDLLGVSPSANEQELKKGYRKAALKYHPDKPTGDTEKFKEISEAFEILNDPQKREIYDQYGLEAARSGGPSFGPGGPGGAGGAGGFPGGAGGFSGGHAFSNEDAFNIFSQFFGGSSTYPEEETVQVNLPVSLEDLFVGKKKSFKIGRKGPHGASEKTQIDIQLKPGWKAGTKITYKNQGDYNPQTGRRKTLQFVIQEKSHPNFKRDGDDLIYTLPLSFKESLLGFSKTIQTIDGRTLPLSRVQPVQPSQTSTYPGQGMPTPKNPSQRGNLIVKYKVDYPISLNDAQKRAIDENF
notes: source: E. coli BL21(DE3), purified by two chromatography steps
B3: SYS (Sis1_(1–121)-Ydj1_(101–255)-Sis1_(258–352)) (other, yeast, UniProt P25294 1-121, looked up)
chain: MVKETKLYDLLGVSPSANEQELKKGYRKAALKYHPDKPTGDTEKFKEISEAFEILNDPQKREIYDQYGLEAARSGGPSFGPGGPGGAGGAGGFPGGAGGFSGGHAFSNEDAFNIFSQFFGGAGGAQRPRGPQRGKDIKHEISASLEELYKGRTAKLALNKQILCKECEGRGGKKGAVKKCTSCNGQGIKFVTRQMGPMIQRFQTECDVCHGTGDIIDPKDRCKSCNGKKVENERKILEVHVEPGMKDGQRIVFKGEADQAPDVIPGDVVFIVSERPHPNFKRDGDDLIYTLPLSFKESLLGFSKTIQTIDGRTLPLSRVQPVQPSQTSTYPGQGMPTPKNPSQRGNLIVKYKVDYPISLNDAQKRAIDENF
notes: Ydj1, yeast, residues 101–255 (central region); Sis1, yeast, residues 258–352 (CTDII and dimerization region); also called chimera SYS; SYS chimera; source: E. coli BL21(DE3), purified by two chromatography steps
B4: Hsp70 Ssa1 (natural protein)
chain: not shown
notes: Ssa1, yeast cytosolic Hsp70; also called yeast Hsp70; source: E. coli BL21(DE3), purified by two chromatography steps (said of all recombinant proteins, 'unless otherwise noted')
B5: Sis1_Δ_(121–257) (natural protein, yeast, UniProt P25294 1-352, looked up)
chain: MVKETKLYDLLGVSPSANEQELKKGYRKAALKYHPDKPTGDTEKFKEISEAFEILNDPQKREIYDQYGLEAARSGGPSFGPGGPGGAGGAGGFPGGAGGFSGGHAFSNEDAFNIFSQFFGHPNFKRDGDDLIYTLPLSFKESLLGFSKTIQTIDGRTLPLSRVQPVQPSQTSTYPGQGMPTPKNPSQRGNLIVKYKVDYPISLNDAQKRAIDENF
notes: as for B2

Experiments:
[1] = molecular target: the molecule itself; assay: SEC-MALLS; Superdex 200 10/300 GL, buffer A (25 mM Tris-HCl pH 7.5, 500 mM NaCl); 25 µM protein without urea, 50–75 µM with urea up to 1 M
[2] = molecular target: B4; assay: ELISA; Sis1, variants or Ydj1 (100 µL at 200 nM) coated on the microplate; Ssa1 (100 nM) in 50 mM phosphate pH 7.4, 150 mM NaCl, 5 mM Mg-ATP, 1 h, 25°C; bound Ssa1 detected with α-Ssa1; Sis1 set as 100%; conditions: both partners purified
[3] = molecular target: B3; assay: as above; conditions: both partners purified
[4] = molecular target: B5; assay: as above; conditions: both partners purified
[5] = molecular target: T1, full-length Ydj1; assay: as above; conditions: both partners purified

Binder	stoichiometry N [1]	binding result [2]	percent of the binding ability of Sis1 [3] [%]	percent of the binding ability of Sis1 [4] [%]	percent of the binding ability of Sis1 [5] [%]
B1	2	binds			
B2	2	binds			
B3	2				
B4			~50	~50	~30
B5	2				
